Binding data for six sequences are collected here from article PMC7593903.

The first data set deals with T1, ZafA (Aspergillus fumigatus (FGSC A1163 akuB(KU80)-delta pyrG1 is the study strain; cDNA source 'fungal cDNA')) (UniProt A3QX02).
T1 sequence: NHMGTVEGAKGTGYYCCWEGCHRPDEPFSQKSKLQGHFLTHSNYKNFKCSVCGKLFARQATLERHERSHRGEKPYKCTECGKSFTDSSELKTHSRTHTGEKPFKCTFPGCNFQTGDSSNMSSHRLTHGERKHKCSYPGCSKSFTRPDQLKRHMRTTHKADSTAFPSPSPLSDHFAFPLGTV
Nature of the data set: EMSA. The following applies: 10 mM Tris-HCl pH 8.0, 50 mM NaCl, 1 mM MgCl2, 500 uM EDTA, 500 uM DTT, 4% glycerol; 500 ng ZafA, 5 ng probe; 30 min at 25 C; Zn/Cu added 10 min after start of ….
In the case of “AAGGGCCCAGGGCCTGTCTTGTTGTACGACTTCACTTTCTCCCAGGGTGCCACTGCTTGCTATCTCTATGTAGATAACCGCTGTCTTTCCTCTTTTTTTGACCCTTTCTTCTATTGCTCTGGTCTGCT (double strand) [CtrC promoter EMSA probe, 128 bp]”, the binding entry is on record as “binds”.

For “CTCAAAGCTCGCTCATCGGATTTTTGATTATCAGTTTTGCGAGACCAAGCATGATAGTGACAGAGCATTCAAGGTGAGAATGTGAAGAATGCGTGGCGGCGTAGCATTCTTACT (double strand) [CtrA2 promoter EMSA probe, 114 bp]”, the binding result was “no binding”.

Take “TACCAGGGCCCCTTTCCCTCAAGTTGCTCGCACAGATCTGGATGTTACTTTCATCGAATATATACACGTGGGAAGCTCCCAAGGTCCTCTTGGAT (double strand) [ZafA promoter EMSA probe, 95 bp]”: the binding result is reported as “binds”.

“TGCCGCCATTGTTCAGCAGTGCGGTGCTGTCAAGGTCAAGGTCAAGGACGGCCTTCTCCAAGGATGTCACATACAAAGGGAATAGACTGAATAAATCATTTCCTCGGCAACGATCCGA (double strand) [CtrA1 promoter EMSA probe, 118 bp]”: the binding entry is “no binding”.

A further data set deals with T1, ZafA (Aspergillus fumigatus (FGSC A1163 akuB(KU80)-delta pyrG1 is the study strain; cDNA source 'fungal cDNA')). The experiment in a line: competition. The following applies: 10 mM Tris-HCl pH 8.0, 50 mM NaCl, 1 mM MgCl2, 500 uM EDTA, 500 uM DTT, 4% glycerol; 500 ng ZafA, 5 ng probe; 30 min at 25 C; Zn/Cu added 10 min after start of ….
On to “AAGGGCCCAGGGCCTGTCTTGTTGTACGACTTCACTTTCTCCCAGGGTGCCACTGCTTGCTATCTCTATGTAGATAACCGCTGTCTTTCCTCTTTTTTTGACCCTTTCTTCTATTGCTCTGGTCTGCT (double strand) [CtrC promoter fragment, unlabeled]”, for which the binding entry is given as “binds”.

On to “AGCAGACCAGAGCAATAGAAGAAAGGGTCAAAAAAAGAGGAAAGACAGCGGTTATCTACATAGAGATAGCAAGCAGTGGCTGGGACGGAGAAAGTGAAGTCGTACAACAAGACAGGCCCTGGGCCCTT (double strand)”, for which the binding result was “no binding”.
